pKd: −log10 of the molar value.
Legend:
[1] = target: T1, partial ACTH peptide (Homo sapiens, UniProt P01189); assay: OD550 Hill plot analysis in serum-based solution versus control solution; assay type: binding
T1 construct: consisting of amino acids of positions 1 to 24 of ACTH; purchased Biologica Co
Procedure: The peptide was dissolved in ultrapure water and mixed with serum collected from a healthy volunteer in USA (person) (SUNFCO) to prepare the serum-based sample containing the basic peptide of interest. The serum-based samples were prepared so as to adjust the final concentrations of the partial ACTH peptide and serum as shown in (3) below.
The denatured BSA solution prepared in the above (1) (50 μl) was mixed with the sample prepared in (2) followed by addition of ultrapure water to prepare a total volume of 250 μl of mixed solution containing serum (hereinafter referred to as “serum-based solution”). In the preparation, the serum-based sample was mixed so as to adjust a final concentration of the partial ACTH peptide of to 0 to 80 μM and adjust a final concentration of serum of to an equivalent to 100-fold dilution in the mixed solution. For a control, a mixed solution was also prepared without serum (hereinafter referred to as “control solution”).
The thus-prepared mixed solutions were measured for absorbance at the wavelength of 550 nm (OD550) with a spectrophotometer UV-2500PC (Shimadzu Corporation).
OD=(peptide concentration)^n/[(peptide concentration)^n+[Kd×(1+CHSA/Ki)]^n]

[2] = target: T2, partial ACTH peptide (positions 1 to 24 of ACTH) (Homo sapiens, UniProt P01189); assay: Turbidity (OD550) measurement and Hill plot analysis of albumin reagents mixed with partial ACTH peptide; assay type: binding
T2 construct: consisting of the amino acids of positions 1 to 24 of ACTH
T2 sequence (P01189 138-161): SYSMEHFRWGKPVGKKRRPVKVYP
Procedure: BSA (Sigma-Aldrich) was dissolved in Milli-Q® water (Millipore) to prepare a BSA solution (1.0 w/v %). The BSA solution was divided into two and one was designated as a non-denatured BSA solution and the other was autoclaved at 110° C. for 15 minutes to obtain a heat-denatured BSA solution.
A partial ACTH peptide (Peptide Institute, Inc.) consisting of the amino acids of positions 1 to 24 of ACTH was used as the basic peptide of interest. The peptide was dissolved in ultrapure water to prepare a sample containing the basic peptide of interest (1.0 mg/ml).
The heat-denatured BSA solution prepared in the above (1) (50 μl) was mixed with the sample prepared in (2) followed by addition of ultrapure water to prepare a total volume of 250 μl of a mixed solution (final concentration of heat-denatured BSA: 0.2 w/v %). In this preparation, the sample was mixed so as to obtain a final concentration of the partial ACTH peptide in the mixed solution of 0 to 150 μM. A comparative mixed solution was also prepared in the similar manner except that the non-denatured BSA solution was used instead of the heat-denatured BSA solution.
The thus-prepared mixed solutions were measured for absorbance at the wavelength of 550 nm (OD550) in a spectrophotometer UV-2500PC (Shimadzu Corporation). The obtained results were subjected to Hill plot analysis with KaleidaGraph (HULINKS, Inc.) to calculate the values of Kd and the Hill coefficient of heat-denatured BSA and non-denatured BSA.
BSA (Sigma-Aldrich) was dissolved in Milli-Q® water (Millipore) to prepare a BSA solution (1.0 w/v %). The BSA solution was divided into five aliquots among which one was designated as a non-denatured BSA solution (heat denaturation period: 0 min) and the rest of four were heated in an autoclave at 110° C. for 5, 15, 60 and 120 min, respectively, to obtain heat-denatured BSA solutions.
The Kd value and Hill coefficient of BSA at respective heat denaturation periods were calculated. […]
The Kd value and Hill coefficient were calculated for the mixed solutions. […]

[3] = target: T1, partial ACTH peptide; assay: Detection capacity (turbidity, OD550) at various final concentrations of reagent for detection; set-up: key: “Y” denotes turbidity appearing; “N” does the absence of turbidity
Procedure: BSA (Sigma-Aldrich) was dissolved in ultrapure water to prepare a BSA solution (5.0 w/v %). The BSA solution was heated in an autoclave at 115° C. for 15 minutes to obtain a heat-denatured BSA solution.
A partial ACTH peptide consisting of amino acids of positions 1 to 24 of ACTH (Biologica Co.) was used as the basic peptide of interest. The peptide was dissolved in ultrapure water to prepare a sample containing the basic peptide of interest (1.0 mg/ml).
The heat-denatured BSA solution prepared in (1) was mixed with 30 μl or 60 μl of the sample prepared in (2) followed by addition of ultrapure water to prepare a total volume of 250 μl of mixed solutions. In the preparation, the reagent for detection (solution of heat-denatured BSA) was mixed with the respective samples so as to obtain a final concentration of the reagent for detection in the mixed solution of 0.1 to 5%.
The thus-prepared mixed solutions were measured for values of absorbance at the wavelength of 550 nm (OD550) with a spectrophotometer UV-2500PC (Shimadzu Corporation). The results obtained are summarized in Table 6, where “Y” denotes turbidity appearing and “N” does the absence of turbidity.

[4] = target: T1, partial ACTH peptide; assay: OD550 detection of basic peptide concentrated by OFFGEL fractionation from serum-containing specimen; conditions: Heat-denatured BSA: Yes; concentrated partial ACTH peptide fraction after OFFGEL fractionation, MES-HCl buffer pH 5.0
Procedure: A partial ACTH peptide consisting of amino acids of positions 1 to 24 of ACTH (Biologica Co.) was used as the basic peptide of interest. The peptide was dissolved in ultrapure water and mixed with serum of a healthy USA subject (SUNFCO) to prepare an actual serum sample containing the basic peptide of interest. The sample was prepared so as to obtain the concentrations of the partial ACTH peptide and serum as shown in (3) below.
(3) Preparation of sample solution containing concentrated basic peptide of interest. A glycerol solution (Agilent technologies; 6 ml) and an OFFGEL Buffer solution (Agilent technologies; 600 μl) were mixed followed by addition of ultrapure water to prepare a total volume of 50 ml of peptide buffer solution (×1.25), the pH of which is 3-10. This solution was mixed with the sample of the above (2) to prepare a peptide buffer solution (×1) with the concentration of 20 μM of the partial ACTH peptide and the concentration equivalent to 1000-fold dilution of serum. This solution was fractionated with using a High Resolution IPG gel for fraction whose pH is pH 3-10 on the OFFGEL fractionator (Agilent Technologies). […]
The thus-prepared mixed solutions were measured for absorbance at the wavelength of 550 nm (OD550) in a spectrophotometer UV-2500PC (Shimadzu Corporation).

[5] = Control solution (without serum)
[6] = Serum solution (serum equivalent to 100-fold dilution)
[7] = Example 1, final BSA 0.2 w/v %, peptide 0 to 150 μM, OD550 Hill plot
[8] = Nucleic acid: Yes (salmon sperm DNA, final 10 μM)
[9] = heat denaturation period 5 min at 110° C.
[10] = heat denaturation period 15 min at 110° C.
[11] = heat denaturation period 60 min at 110° C.
[12] = heat denaturation period 120 min at 110° C.

Hill coefficient n [1, 5]: 4
pKd [1, 5]: 4.60
Hill coefficient n [1, 6]: 3.4
pKd [1, 6]: 4.54
Hill coefficient n [2, 7]: 8
pKd [2, 7]: 4.52
Hill coefficient n ([2]; Nucleic acid: No): 11
pKd ([2]; Nucleic acid: No): 4.40
Hill coefficient n [2, 8]: 8
pKd [2, 8]: 4.52
Hill coefficient n [2, 9]: 5
pKd [2, 9]: 4.48
Hill coefficient n [2, 10]: 8
pKd [2, 10]: 4.52
Hill coefficient n [2, 11]: 6
pKd [2, 11]: 4.55
Hill coefficient n [2, 12]: 4
pKd [2, 12]: 4.48
Detection capacity (in the case of 30 μM peptide) ([3]; final conc. of reagent 0.1 %): Y
Detection capacity (in the case of 60 μM peptide) ([3]; final conc. of reagent 0.1 %): Y
Detection capacity (in the case of 30 μM peptide) ([3]; final conc. of reagent 0.2 %): Y
Detection capacity (in the case of 60 μM peptide) ([3]; final conc. of reagent 0.2 %): Y
Detection capacity (in the case of 30 μM peptide) ([3]; final conc. of reagent 0.4 %): Y
Detection capacity (in the case of 60 μM peptide) ([3]; final conc. of reagent 0.4 %): Y
Detection capacity (in the case of 30 μM peptide) ([3]; final conc. of reagent 0.5 %): Y
Detection capacity (in the case of 60 μM peptide) ([3]; final conc. of reagent 0.5 %): Y
Detection capacity (in the case of 30 μM peptide) ([3]; final conc. of reagent 0.7 %): Y
Detection capacity (in the case of 60 μM peptide) ([3]; final conc. of reagent 0.7 %): Y
Detection capacity (in the case of 30 μM peptide) ([3]; final conc. of reagent 1.0 %): Y
Detection capacity (in the case of 60 μM peptide) ([3]; final conc. of reagent 1.0 %): Y
Detection capacity (in the case of 30 μM peptide) ([3]; final conc. of reagent 5.0 %): Y
Detection capacity (in the case of 60 μM peptide) ([3]; final conc. of reagent 5.0 %): Y
OD550 [4]: 0.03
Substance: Heat-denatured BSA: BSA solution (1.0 w/v %) in Milli-Q water autoclaved at 110° C. for 15 minutes; reagent for detection
change in OD550 with increasing partial ACTH peptide concentration ([2]; albumin reagent mixed with partial ACTH peptide): increased in a concentration dependent manner

Reference: patent publication US10119980B2, “Method for detection of basic peptide and reagent for detection of basic peptide” (SYSMEX CORPORATION, priority 2009, dated 2018)
